Laboratory results from US20200216495A1 (ADRX, published 2020).
“And” between values parts separate entries of the source, which are not always exact repeats. Identical values can stand only once. Square brackets hold non-standard residues; d marks the D form. Ends that are not written are not given here. dMet(O) = CS(=O)CC[C@@H](N)C(=O)O

Target: Tau40 P301L protein (human)
Assay: cell-based or functional assay

IC50, Tau40 assay (ThT)	Binder
1.67 µM and 1.71 µM	[dW][dK][dV][dN][dV][dR][dL][dW] [wkvnvrlw (PEPTIDE ID NO: 95)]
2.02 µM	[dF][dH][dI][dH][dI][dK][dF][dH] [fhihikfh (PEPTIDE ID NO: 437)]
2.02 µM	[dR][dI][dR][dW][dR][dW] [rirwrw (PEPTIDE ID NO: 50)]
0.71 µM	[dK][dV][dR][dW][dW][dL][dR][dW] [kvrwwlrw (PEPTIDE ID NO: 201)]
1.87 µM and 1.91 µM and 0.87 µM	[dF][dR][dL][dK][dV][dR][dW][dF] [frlkvrwf (PEPTIDE ID NO: 4)]
1.9 µM	[dR][dL][dK][dV][dR][dW][dW] [rlkvrww (PEPTIDE ID NO: 298)]
1.54 µM and 1.57 µM	[dW][dR][dV][dQ][dV][dR][dW] [wrvqvrw (PEPTIDE ID NO: 102)]
1.82 µM	[dW][dR][dL][dH][dV][dR][dW][dW] [wrlhvrww (PEPTIDE ID NO: 292)]
0.7 µM	[dW][dR][dL][dR][dL][dR][dW] [wrlrlrw (PEPTIDE ID NO: 200)]
1.91 µM	[dL][dK][dI][dW][dI][dH][dY][dH] [lkiwihyh (PEPTIDE ID NO: 299)]
1.61 µM and 0.75 µM	[dW][dR][dL][dK][dV][dR][dW][dW] [wrlkvrww (PEPTIDE ID NO: 3)]
1.54 µM	[dE][dI][dR][dL][dH][dW] [eirlhw (PEPTIDE ID NO: 74)]
0.7 µM and 0.81 µM	[dW][dK][dV][dW][dV][dR][dY][dW] [wkvwvryw (PEPTIDE ID NO: 92)]
1.71 µM and 1.76 µM	[dF][dK][dL][dH][dI][dR][dH][dW] [fklhirhw (PEPTIDE ID NO: 128)]
1.94 µM	[dW][dR][dL][dA][dV][dR][dW] [wrlavrw (PEPTIDE ID NO: 301)]
1.56 µM and 1.61 µM	[dW][dK][dV][dK][dI][dQ][dY][dH] [wkvkiqyh (PEPTIDE ID NO: 100)]
1.57 µM	[dL][dK][dI][dR][dI][dY][dY] [lkiriyy (PEPTIDE ID NO: 277)]
1.52 µM	[dW][dR][dL][dK][dV][dR][dW][dE] [wrlkvrwe (PEPTIDE ID NO: 275)]
1.56 µM	[dW][dR][dT][dK][dV][dR][dW] [wrtkvrw (PEPTIDE ID NO: 276)]
0.74 µM	[dV][dR][dW][dW][dW][dR][dL][dK] [vrwwwrlk (PEPTIDE ID NO: 204)]
0.7 µM	[dL][dK][dV][dR][dW][dW][dW][dR] [lkvrwwwr (PEPTIDE ID NO: 199)]

IC50, Tau40 assay (ThT)	Binder
1.64 µM and 2.06 µM	[dL][dR][dL][dH][dL][dR][dH][dW] [lrlhlrhw (PEPTIDE ID NO: 149)]
1.67 µM	[dK][dL][dK][dL][dR][dW][dF] [klklrwf (PEPTIDE ID NO: 438)]
1.68 µM	[dR][dR][dL][dK][dV][dR][dW][dR] [rrlkvrwr (PEPTIDE ID NO: 439)]
1.69 µM	[dW][dK][dV][dK][dF][dQ][dH][dW] [wkvkfqhw (PEPTIDE ID NO: 94)]
1.77 µM	[dW][dR][dL][dK][dV][dR][dW] [wrlkvrw (PEPTIDE ID NO: 289)]
1.84 µM and 1.88 µM	[dL][dH][dI][dR][dL][dR][dH][dW] [lhirlrhw (PEPTIDE ID NO: 153)]
1.63 µM	[dT][dK][dI][dR][dI][dH][dY] [tkirihy (PEPTIDE ID NO: 283)]
0.72 µM	[dL][dW][dR][dL][dK][dV][dR][dW] [lwrlkvrw (PEPTIDE ID NO: 202)]
1.94 µM	[dH][dY][dH][dI][dR][dI][dK][dL] [hyhirikl (PEPTIDE ID NO: 300)]
1.57 µM and 1.65 µM	[dF][dK][dI][dK][dI][dK][dW] (not fully specified; printed as fkikikw) [fkikikw (PEPTIDE ID NO: 60)]
1.82 µM	[dW][dN][dL][dK][dV][dR][dW] [wnlkvrw (PEPTIDE ID NO: 294)]
1.64 µM	[dW][dR][dL][dK][dV][dR][dE][dW] [wrlkvrew (PEPTIDE ID NO: 284)]
1.77 µM	[dF][dR][dL][dK][dL][dR][dF][dH] [frlklrfh (PEPTIDE ID NO: 426)]
1.65 µM and 1.79 µM	[dF][dK][dI][dH][dI][dK][dH][dY] [fkihikhy (PEPTIDE ID NO: 127)]
1.64 µM	[dL][dK][dI][dQ][dI][dH][dY] [lkiqihy (PEPTIDE ID NO: 285)]
1.87 µM	[dW][dR][dL][dK][dV][dN][dW] [wrlkvnw (PEPTIDE ID NO: 296)]
2.02 µM	[dW][dI][dK][dI][dW][dR] [wikiwr (PEPTIDE ID NO: 29)]
1.86 µM and 2.19 µM	[dF][dH][dI][dR][dL][dE][dW][dH] [fhirlewh (PEPTIDE ID NO: 139)]
1.91 µM and 2.45 µM	[dW][dR][dI][dR][dL][dR][dY][dW] [wrirlryw (PEPTIDE ID NO: 104)]
1.87 µM	[dK][dI][dK][dI][dK][dW] [kikikw (PEPTIDE ID NO: 66)]
1.61 µM	[dR][dL][dR][dI][dR][dW] [rlrirw (PEPTIDE ID NO: 27)]

IC50, Tau40 assay (ThT)	Binder
1.58 µM	[dW][dR][dL][dK][dV][dR][dR][dW] [wrlkvrrw (PEPTIDE ID NO: 278)]
1.74 µM and 1.84 µM	[dF][dK][dI][dK][dL][dK][dW] [fkiklkw (PEPTIDE ID NO: 35)]
1.85 µM	[dL][dK][dI][dH][dI][dH][dY][dH] [lkihihyh (PEPTIDE ID NO: 295)]
1.99 µM	[dL][dK][dI][dF][dI][dY][dY][dH] [lkifiyyh (PEPTIDE ID NO: 302)]
1.72 µM	[dW][dR][dL][dE][dV][dR][dW][dW] [wrlevrww (PEPTIDE ID NO: 288)]
1.79 µM	[dR][dR][dL][dR][dI][dH][dW] [rrlrihw (PEPTIDE ID NO: 290)]
1.65 µM and 1.83 µM	[dL][dH][dI][dK][dL][dR][dW][dH] [lhiklrwh (PEPTIDE ID NO: 151)]
1.78 µM and 2.43 µM	[dL][dR][dL][dR][dI][dK][dH][dF] [lrlrikhf (PEPTIDE ID NO: 150)]
1.6 µM	[dW][dR][dL][dQ][dV][dR][dW] [wrlqvrw (PEPTIDE ID NO: 280)]
1.54 µM and 1.63 µM	[dW][dH][dL][dR][dI][dR][dW] [whlrirw (PEPTIDE ID NO: 19)]
1.94 µM and 1.95 µM	[dP][dR][dI][dR][dL][dH][dW] [prirlhw (PEPTIDE ID NO: 33)]
1.98 µM	[dW][dR][dL][dR][dI][dW][dW] [wrlriww (PEPTIDE ID NO: 103)]
1.81 µM	[dL][dK][dI][dR][dI][dH][dY][dR] [lkirihyr (PEPTIDE ID NO: 291)]
1.77 µM and 2.53 µM	[dW][dF][dK][dI][dK][dL][dE][dL] [wfkiklel (PEPTIDE ID NO: 110)]
1.67 µM	[dR][dT][dL][dK][dI][dV][dW][dR] [rtlkivwr (PEPTIDE ID NO: 22)]
1.73 µM and 1.76 µM	[dW][dK][dV][dQ][dV][dR][dW] [wkvqvrw (PEPTIDE ID NO: 89)]
1.88 µM	[dL][dK][dI][dR][dI][dMet(O)][dY] [lkirixy (PEPTIDE ID NO: 297)]
1.89 µM and 0.91 µM	[dF][dK][dI][dR][dI][dH][dH][dY] [fkirihhy (PEPTIDE ID NO: 122)]
1.62 µM	[dW][dR][dL][dK][dV][dQ][dW] [wrlkvqw (PEPTIDE ID NO: 281)]
